Results on 2 substances are retold here after publication PMC6658011.

For the experiment, the target named is full-length AMC011 Env trimer (HIV-1). As to the kind of experiment: negative-stain EM.

PGT145 Fab gave a stoichiometry N (Fab per trimer) of 1.

In the case of PGT151 Fab, the stoichiometry N (Fab per trimer) is 2.
